According to patent US12472226B2, “Cell-permeable peptide” (priority 2019, dated 2025):
Non-standard residues stand in square brackets, D forms with d. No end group written: not given here. *: point of attachment. FITC = O=C1OC2(c3ccc(O)cc3Oc3cc(O)ccc32)c2ccc(NC(=S)*)cc21; Ahx = NCCCCCC(=O)O

Columns and labels:
CD13 = target: T1, CD13 (Homo sapiens, UniProt P15144); experiment: Analytical test of binding protein by immunoprecipitation; conditions: HT-1080 cells, 80 μg/400 μL, 4° C., 2 hours
T1 construct: endogenous in cells; host or cells: HT-1080 cells
Experimental: Example 2 (80 μg/400 μL) reacted to HT-1080 cells (40 million cells) at 4° C. for 2 hours. The cells were then washed with PBS, and centrifuged. The centrifuged cells were dissolved in 1,000 μL of IP Lysis/Wash buffer (Thermo Fisher Scientific) with Halt Protease & Phosphatase inhibitor Single-Use Cocktail, ETDA-Free (Thermo Fisher Scientific) (10 μL) at 4° C. for 5 minutes. It was centrifuged at 4° C. for 10 minutes and the supernatant was collected. The supernatant was adjusted to be 1 mg in amount of protein and 80 μL of A/G agarose was added to it. The mixture was stirred at 4° C. for 1 hour and then centrifuged for 1 minute. Thus, a pre-treatment solution was obtained. 10 μg of IgG Fraction Monoclonal Mouse Anti-Fluorescein (FITC) (Jackson ImmunoResearch) or 10 μg of Mouse IgG Isotype Control (Thermo Fisher Scientific) was each added to the pre-treatment solution (1 mg/600 μL), and the mixtures were shaken at 4° C. overnight. Subsequently, 20 μL of A/G agarose was added and the mixtures were shaken at 4° C. for 2 hours. The mixtures were washed three times with the wash buffer described above and 20 μL of 2×Non-reducing Lane Marker Sample Buffer (Thermo Fisher Scientific) was added to the A/G agaroses. […]
The 10% solution used in immunoprecipitation was loaded to the left lane of FIG. 3. […] CD13 was not detected on the right lane, but CD 13 was detected on the center lane.

CD13 on Gin-1 cells = target: T2, CD13 on Gin-1 cells (Homo sapiens, UniProt P15144); experiment: Binding test to cell membrane (confocal, CD13 co-staining); assay type: cell-based; conditions: 1 μg/100 μL, 4° C., 1 hour
T2 construct: endogenous in cells; host or cells: Gin-1 cells
Experimental: (§1) A PE-labeled human CD13 antibody (Clone: WM-15 Biolegend) ([…]) and Example 2 (1 μg/100 μL) were added to each of the cells (500,000 cells/[…]), and the cells were stained at 4° C. for 1 hour. After the cells were washed with PBS, CD13 expression of each cell and binding site of Example 2 were observed as the standard of the fluorescence intensity of the HT-1080 cells using the confocal laser scanning microscope LSM800. The expression of CD13 (red) was strongest and the luminescence of Example 2 (green) was also strong in the HT-1080 and Gin-1 cells. […] Further, the same phenomenon about CD13 expression was also recognized in the U937, HL-60, THP-1 and Hos cells (not shown).

CD13 on HT-1080 cells = target: T3, CD13 on HT-1080 cells (Homo sapiens, UniProt P15144); experiment: as above; assay type: cell-based; conditions: 1 μg/100 μL, 4° C., 1 hour
T3 construct: endogenous in cells; host or cells: HT-1080 cells
Experimental: as §1

[1] = tested on: cytoplasm and nuclear protein of HT-1080 cells; experiment: Analytical test of cytoplasm and nuclear protein bound by Example 2 (immunoprecipitation, shotgun analysis); assay type: binding, human; conditions: 50 μg/mL, 5 days
Experimental: The HT-1080 cells (20 million cells) were cultured in 4 mL of serum-supplemented medium (α-MEM+10% FBS) to be 50 μg/mL at the final concentration of Example 2 for 5 days at 37° C. and 5% CO2 in the cell incubator. The cells were washed with PBS and collected. The protein was individually harvested from the cytoplasm and the nucleus using NE-PER Nuclear and Cytoplasmic Extraction Reagents (PIERCE). 80 μL of A/G agarose was added to 1 mg of each protein from the cytoplasm and the nucleus and stirred at 4° C. for 1 hour, the samples were pretreated. 10 μg of IgG Fraction Monoclonal Mouse Anti-Fluorescein (FITC) (Jackson ImmunoResearch) was added to the pretreated solution (1 mg/600 μL) and shaken at 4° C. overnight. Subsequently, 20 μL of A/G agarose was added to the mixtures and shaken at 4° C. for 2 hours. After the mixtures were washed three times with a wash buffer, 50 μL of elution buffer (Thermo Fisher Scientific) was added to the A/G agarose. […]
Proteins were identified from the cytoplasm or nucleus and listed with the accession number, protein name, identified number of detected peptides, identified number of unique peptides, confidence score and amount of cytoplasmic protein or nuclear protein(fmol), except for the antibodies used in immunoprecipitation and Example 2 from the detected proteins.

HT-1080 cells tumor = experiment: Growth-inhibition and apoptosis of cancer cells in tumor-bearing mice; assay type: in vivo, BALB/c nude mouse; conditions: 10 mg/kg intraperitoneally every 3 days
Experimental: HT-1080 cells (1×10^7 cells/200 μL) were subcutaneously implanted into the back of 5 week-old BALB/c nude mouse (CHARLES RIVER LABORATORIES JAPAN, INC.). A tumor after the implantation was confirmed to reach 30 to 60 mm^3, and then they were subjected to the following tests.
Example 2 was dissolved in the sterile water and adjusted to be 200 μg/200 μL by the addition of 2-time concentrated α-MEM (not containing glutamine or an antibiotic). It was intraperitoneally administered to tumor-bearing mice at 10 mg/kg every 3 days. In the control administration group, 200 μL of 1-time concentrated α-MEM was intraperitoneally administered to tumor-bearing mice every 3 days. The mice were weighed on DRETEC weighing scale (DRETEC CO., Ltd., Japan) and the tumor size (estimation volume (shortest diameter×longer diameter×height×pi/6 mm^3)) was measured with a vernier caliper (maximum: 150 mm, minimum: 0.05 mm) (MITUTOYO, Japan) every 3 days.
FIG. 6 is a graph illustrating the transitions of tumor size in the Example 2 and control administration group (N=6). The vertical axis represents the average value of tumor size±standard deviation (SD), and the horizontal axis represents the days after administration. […] In the control administration group, the tumor size on day 24 was more than 1,500 mm^3. On the other hand, the effect of suppressing tumor growth was confirmed as the tumor size was about 600 mm^3 in the Example 2 administration.

T2 sequence (P15144 whole entry): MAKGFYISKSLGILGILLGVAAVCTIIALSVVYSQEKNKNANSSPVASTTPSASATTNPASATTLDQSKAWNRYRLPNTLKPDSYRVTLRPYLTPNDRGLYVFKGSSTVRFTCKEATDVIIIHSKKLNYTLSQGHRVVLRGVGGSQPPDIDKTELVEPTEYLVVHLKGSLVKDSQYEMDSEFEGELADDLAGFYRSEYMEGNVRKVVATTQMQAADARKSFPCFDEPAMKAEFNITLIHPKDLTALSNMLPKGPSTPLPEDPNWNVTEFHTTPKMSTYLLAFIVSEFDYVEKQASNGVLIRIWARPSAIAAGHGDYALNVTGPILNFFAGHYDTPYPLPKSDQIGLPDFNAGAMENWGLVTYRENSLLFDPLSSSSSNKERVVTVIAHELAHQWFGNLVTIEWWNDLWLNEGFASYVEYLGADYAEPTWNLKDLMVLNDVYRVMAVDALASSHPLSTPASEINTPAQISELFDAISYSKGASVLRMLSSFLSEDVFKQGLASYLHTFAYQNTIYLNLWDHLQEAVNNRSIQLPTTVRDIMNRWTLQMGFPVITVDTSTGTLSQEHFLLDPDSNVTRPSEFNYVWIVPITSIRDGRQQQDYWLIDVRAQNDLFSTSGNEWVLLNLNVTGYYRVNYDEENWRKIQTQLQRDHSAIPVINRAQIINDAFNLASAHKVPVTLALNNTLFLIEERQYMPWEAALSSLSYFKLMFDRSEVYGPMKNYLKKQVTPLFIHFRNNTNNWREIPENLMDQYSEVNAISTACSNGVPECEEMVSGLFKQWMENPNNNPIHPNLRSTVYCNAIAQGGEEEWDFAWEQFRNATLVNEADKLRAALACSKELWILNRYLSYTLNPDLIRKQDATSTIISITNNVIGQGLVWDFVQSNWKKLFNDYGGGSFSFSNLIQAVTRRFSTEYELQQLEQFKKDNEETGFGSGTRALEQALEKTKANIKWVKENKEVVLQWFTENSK
T3 sequence (P15144 whole entry): as above
T1 sequence (P15144 whole entry): as above

colocalization with CD13 (overlay images) (CD13 on Gin-1 cells): colocalized | luminescence of the peptide (green) on cells (CD13 on Gin-1 cells): strong | colocalization with CD13 (overlay images) (CD13 on HT-1080 cells): colocalized | luminescence of the peptide (green) on cells (CD13 on HT-1080 cells): strong
Substance: Example 2: peptide of SEQ ID NO: 1 labeled with FITC, bound via an Ahx linker at the N-terminus ({FITC}-[Ahx]KDNRGNLLQCVCTGNGRGEWKC; cysteine pairing not given here)
binding to CD13 (co-immunoprecipitation with anti-FITC, Western blotting) (CD13): proved to bind to CD13 on a cell membrane specifically | nuclear transfer proved biochemically [1]: transfer to the inside of the nucleus | proteins bound (identified from cytoplasm or nucleus) [1]: linker histones H1-3, core histones (H2A, H2B, H3-2 and H4), 22 types of 40S ribosomal proteins and 28 types of 60S ribosomal proteins | growth inhibition of the tumor compared with the control administration group (HT-1080 cells tumor; between days 12 and 24): significant difference at a level of 1% | tumor size (HT-1080 cells tumor; day 24, N=6): about 600 mm^3 | tumor shrinkage (HT-1080 cells tumor; to the 33th day): tendency to shrink the tumor was confirmed
